Reference: US20140096274A1 (published 2014)

B1: murine RANKL heterodimeric variant mD1 (mouse Dimer 1) (ligand)
chain 1: EAQPFAHLTINAASIPSGSHKVTLSSWYHDRGWADISNMTLSNGKLRVNQDGFYYLYANISFRHHETSGSVPTDYLQLMVYVVKTSIKIPSSHNLMKGGSTKNWSGNSEFHYYSINVGGFFKLRAGEEISIQVSNPSLLDPDQDATYFGAFKVQDID
chain 2: EAQPFAHLTINAASIPSGSHKVTLSSWYHDRGWAKISNMTLSNGKLRVNQDGYYYLYANICFRHHETSGSVPTDYLQLMVYVVKTSIKIPSSHNLMDGGSTKNWSGNSEFHFYSINVGGYFKLRAGEEISIQVSNPSLLDPDQDATYFGAFKVQDID
notes: range 160-316; Heterodimer of monomer A (His-tagged) and monomer B, co-expressed in E. coli; also called RANKL dimer 1; RANK-L Dimer 1; not shown: hexahistidine-tag fused to monomer A
B2: murine RANKL heterodimeric variant mD2 (mouse Dimer 2) (ligand)
chain 1: EAQPFAHLVINAASIPSGSHKVTLSSWYHDRGWAKISNMTLSNGKLRVNQDGFYYLYANISFRHHETSGKVPTDYLQLMVYVVKTSIKIPSSHNLMKGGSTKNWSGNSEFHYYSINVGGFFKLRAGEEISIQVSNPSLLDPDQDATYFGAFKVQDID
chain 2: EAQPFAHLVINAASIPSGSHKVTLSSWYHDRGWAKISNMTLSNGKLRVNQDGYYYLYANICFRHHETSGKVPTDYLQLMVYVVKTSIKIPSSHNLMDGGSTKNWSGNSEFHFYSINVGGYFKLRAGEEISIQVSNPSLLDPDQDATYFGAFKVQDID
notes: range 160-316; Heterodimer of monomer A (His-tagged) and monomer B, co-expressed in E. coli; also called RANKL dimer 2; dRANKL D2; not shown: hexahistidine-tag fused to monomer A
B3: human RANK-Fc (Fc fusion, UniProt Q9Y6Q6 30-212, looked up)
chain: IAPPCTSEKHYEHLGRCCNKCEPGKYMSSKCTTTSDSVCLPCGPDEYLDSWNEEDKCLLHKVCDTGKALVAVVAGNSTTPRRCACTAGYHWSQDCECCRRNTECAPGLGAQHPLQLNKDTVCKPCLAGYFSDAFSSTDKCRPWTNCTFLGKRVEHHGTEKSDAVCSSSLPARKPPNEPHVYLP
notes: also called hRANK-Fc; hRANK-FC; not shown: Fc part of the bought fusion; not described
B4: murine RANK-Fc (Fc fusion, mouse, UniProt O35305 31-214, looked up)
chain: VTPPCTQERHYEHLGRCCSRCEPGKYLSSKCTPTSDSVCLPCGPDEYLDTWNEEDKCLLHKVCDAGKALVAVDPGNHTAPRRCACTAGYHWNSDCECCRRNTECAPGFGAQHPLQLNKDTVCTPCLLGFFSDVFSSTDKCKPWTNCTLLGKLEAHQGTTESDVVCSSSMTLRRPPKEAQAYLPS
notes: also called mRANK-Fc; mRANK-FC; not shown: Fc part of the bought fusion; not described

Tests used:
[1] = target: B4; assay: competitive ELISA on mRANK-Fc coated wells, competitor 2 nM flag-mRANKL WT, anti-flag detection
Method: The ability of mD1 and mD2 to compete with mRANKL WT for binding to mRANK-Fc was investigated using a competitive ELISA. Serial dilutions of mD1 or mD2 (0-400 nM) and a fixed concentration (2 nM) of flag-mRANKL WT were added to mRANK-Fc coated wells. A dose-dependent decrease of flag-mRANKL WT binding was observed upon increasing concentrations of mD1 and mD2 (FIG. 18A).

[2] = target: B4; assay: competitive ELISA on RANK-Fc coated wells, competitor flag-mRANKL (0-53 nM), anti-flag detection, global four parameter fit
Method: The ability of dimer 1 and dimer 2 to compete with wild-type murine RANKL for binding to mRANK was investigated using a competitive ELISA. […] After washing off unbound RANKL, mRANK bound flag-mRANKL was detected by an anti-flag antibody. A RANKL dimer concentration dependant decrease in mRANK binding and right shift in the EC₅₀ of flag-mRANKL was observed (FIGS. 7 and 18B), indicating a competitive inhibition based mechanism. IC₅₀ values for dimer 1 and dimer 2 were calculated to be 4 nM by a global fit of the individual dose response curves using a four parameter logistic model.

[3] = target: B3; assay: SPR on hRANK-Fc, 37 C
Method: (§1) A Biacore experiment was performed to determine the kinetics of binding of the dimeric variants. hRANK-FC (Sigma) was captured in flow cell 2 at a level of 40 RU by a 60 s injection pulse of a 0.7 ug/ml hRANK-FC solution at a flow rate of 50 uL/min. Flow cell 1 served as reference cell. Subsequently, serial dilutions ranging from 562 nM to 100 pM of murine RANKL wt (R&D systems), or the purified RANKL dimers mD1 and mD2 were injected over both flow cells at 50 uL/min and 37° C. Binding was measured in real time. After each cycle the protein A surface was regenerated with a 30 s pulse of 10 mM Glycine pH 1.5. Kd values were calculated by fitting the data to a langmuir 1:1 binding model using the BIAevaluation software as described before (30). (Table 6 and FIG. 6).
(§2) Kinetic binding parameters were measured in real time using SPR. RANKL dimer binding curves were recorded using concentrations ranging from 100 pM to 562 nM dimer 1 (mD1) or dimer 2 (mD2), trimeric murine wild-type RANKL was used as a control. Measurements were performed at 37° C. The dissociation constants (KD) were determined by fitting the data to a Langmuir 1:1 interaction model. […] The binding off-rate constant (koff) of wild-type murine RANKL was ˜2 to 6 fold slower than for dimer 1 and dimer 2.

[4] = target: B1; assay: SPR single cycle kinetics, hRANK-Fc captured at 20-40 RU, 1:1 fit
Method: (§3) Considering the high similarity between human RANKL and murine RANKL (>88%) the murine dimers were also tested for hRANK binding. Binding to hRANK-Fc and mRANK-Fc (both from R&D Systems) was recorded for five consecutive concentrations of murine flag RANKL WT, D1 (mD1) or D2 (mD2) (˜0.3-15 nM) using SPR with a single cycle kinetics based approach. The capture level of mRANK-Fc and hRANK-Fc was low (20-40 RU) in order to ensure 1:1 binding. Both WT and the D1 and D2 dimeric variants bound with high affinity towards the mRANK receptor and to the human RANK receptor (FIG. 16: Table 8).

[5] = target: B2; assay: as above
Method: as §3

[6] = target: B1; assay: SPR (Biacore), hRANK-Fc captured on protein A at 40 RU, 37 C, 1:1 Langmuir fit
Method: as §1, §2

[7] = target: B2; assay: as above
Method: as §1, §2

[8] = target: B1; assay: SPR single cycle kinetics, mRANK-Fc captured at 20-40 RU, 1:1 fit
Method: as §3

[9] = target: B2; assay: as above
Method: as §3

[10] = target: B1; assay: SPR, mRANK-Fc captured at low density on C1 chip, 1:1 Langmuir fit, mean of three experiments
Method: (§4) SPR measurements were performed using ˜1500-2000 RU of captured mRANK-Fc on the surface of a CM5 sensor chip (FIGS. 15B and C). This is a density that results in a mean ratio of RANKL:RANK of approx 1:3 (52). […] (Table 5, below) In contrast, the ratio of binding of RANKL variants mD1 and mD2 to mRANK-Fc seems hardly to be affected by receptor density (Table 5). The values obtained after injecting 500 nM of the dimeric variants correlate to binding of 1.5 monomeric subunits by mD1 and 1.6 monomeric subunits by mD2.
(§5) Kinetic binding parameters were also measured for mD1 and mD2 binding to mRANK-FC in real time using SPR using murine RANKL-WT as a control (FIG. 15; table 8). RANKL dimer binding curves to mRANK-Fc captured at low density on the surface of a C1 sensorchip were recorded using concentrations ranging from 100 pM to 562 nM. At very low receptor density, RANKL proteins bind only one receptor molecule, allowing the data to be fitted to a Langmuir 1:1 interaction model (29). RANKL WT needed a very low density (<20 resonance units (RU)) to come close to a 1:1 ratio (FIG. 3A). […] Maximum binding of 5.5 RU is reached, which is slightly lower than the expected Rₘₐₓ value of 6.8 RU for a 1:1 ratio, but definitely larger than 3.4 RU, the Rₘₐₓ value expected for a binding ratio of 2 molecules of RANK per flag-mRANKL WT trimer. Similar to mRANKL WT, binding of RANKL mD1 or mD2 to mRANK-Fc results in slightly lower Rₘₐₓ values than expected for a 1:1 binding ratio: 24 RU D1 compared to 26 RU, and 20 RU D2 compared to 23 RU (FIG. 15A). These binding ratio's could be reached with mD1 and mD2 at densities of mRANK-Fc of <50 RU. The approximate 1:1 binding of RANKL proteins to mRANK-Fc allows fitting the data to the 1:1 Langmuir binding model.

[11] = target: B2; assay: as above
Method: as §4, §5

Binder: B1
- IC50 [1]: 31 nM
- IC50 [2]: 4 nM
- fold faster kon than wild-type murine RANKL [3]: ~5 fold

Binder: B2
- IC50 [1]: 28 nM
- IC50 [2]: 4 nM
- fold faster kon than wild-type murine RANKL [3]: ~10 fold

Binder: B3
- Kd [4]: 0.129 nM
- koff [4]: 0.00108 s⁻¹
- kon [4]: 8.8e+06 M⁻¹ s⁻¹
- Kd [5]: 0.0259 nM
- koff [5]: 0.000173 s⁻¹
- kon [5]: 6.69e+06 M⁻¹ s⁻¹
- Ka [6]: 2.33e+10 M⁻¹
- Kd [6]: 0.0446 nM
- koff [6]: 0.000197 s⁻¹
- kon [6]: 4.52e+06 M⁻¹ s⁻¹
- Ka [7]: 1.8e+10 M⁻¹
- Kd [7]: 0.0619 nM
- koff [7]: 0.000554 s⁻¹
- kon [7]: 8.55e+06 M⁻¹ s⁻¹

Binder: B4
- Kd [8]: 0.0439 nM
- koff [8]: 0.000247 s⁻¹
- kon [8]: 5.93e+06 M⁻¹ s⁻¹
- Kd [9]: 0.00855 nM
- koff [9]: 5.76e-05 s⁻¹
- kon [9]: 6.73e+06 M⁻¹ s⁻¹
- Ka [10]: 2.7e+10 M⁻¹
- Kd [10]: 0.146 nM
- koff [10]: 0.00015 s⁻¹
- kon [10]: 5.8e+06 M⁻¹ s⁻¹
- Ka [11]: 2.1e+11 M⁻¹
- Kd [11]: 0.01 nM
- koff [11]: 4.3e-05 s⁻¹
- kon [11]: 4.9e+06 M⁻¹ s⁻¹
